From US20230242902A1, “A HIGHLY ERROR-PRONE […] R[…] FOR TARGETED CONTINUOUS EVOLUTION IN VIVO” (The Regents of the University of California, priority 2017, published 2023)
Substitutions are numbered along the chain they refer to. Names may count otherwise. “And” between values parts separate entries of the source, which are not always exact repeats. Identical values can stand only once.

B1: WT: wild-type Kluyveromyces lactis DNA polymerase TP-DNAP2, SEQ ID NO:13 (protein, listed as Kluyveromyces lactis)
chain: MNDELAFLNSQIDDYSDDIEFLRTEVFRINRYSKSIYSLMKNSSKEAIKETIEFNKYGQEIHSKIKEKEISLIEAIKLMEKKYKYLRSLNKTKDKSKKKKIHTKDIETLKTIYKTKADFDIRNFKNAETFTYENYSLLIPSEKELIDLIPEIEEDYSYYFYVSLTITGPTIFGGVTRKVPIIDTYGDINKDFYNKIKENITKVLDRVPFYEEKESEIICKKVLITLTVNKWESIDKWYKNVKSKSKKFKDFTLFLASDTSKNCVQQCVEYLGGKWNTNYSLEKMIPQQKIVTYIPLLMDIQYVQSMEDLISDFDEPNTDCKNIARLLKWNGHMGVITKIDKDVKINRIQRKRIIDVENKEVKEVFFDIESFSDETKHQIPYLICWSYLGELYYRTGKNCIKEFVEEILSYNVDIILYAWYGSGYDYQHVLPYMKSKCIKDKYIIKNNMITYGELYYENAIIYLKDPYLFILTSLDKASKAFNVINKGEFPHSIIHSWEDLNKILPNWVKIQKRMIEYKDDNKLNIYYKNIEIFENDRNYNTILENAIEYCKVDVLAMEKVWIKFKKLLEKNLNITVSVKTFTLSQLSMKIMESKLPKYVKLYVPTLEEYSKIRNAIYGGRVISKNGIYEENIVYADVVSLYPSAMKLLKHSYGKPKLVDYIDFEKHGIYRVTLLNKHDQEPKNYLNFVPRRINRKLTWEWFKIHEGWYHTYDLIIAKSEGFDIYCHEGFEYPEKDYIFNDFIDTLYSMKETHTACSCEEQPCPIRMVAKIALNGGGYGKFVQKPIDKEIYIVKRDVVAGECDKLQENENGEICIGKRLVKRPLFYNLDSENYDKMIIEKEDEPIYSTQCGISILSASRYRLYKLCKQFENIDIIYSDTDSIFVKQKSVDWELFKSKCGSELGQLDSTIDDTKNAIISKMYIGGAKMYAFEYLNNKNKLITKLHCKGVPNYMLSLNQFKYLMESPDNTIAYKFEIIRRKLVNVITKDLIKDIKQT
B2: TP-DNAP1-4-2: TP-DNAP1 variant (L477V, L640Y, I777K, W814N), encoded by SEQ ID NO:11 (protein, listed as Kluyveromyces lactis)
chain: MDYKDKALNDLRNVYADFDSLPLDFRQILIKDRATLLQKEDVEKKILERQEDAKKYAEYLKQSEIPERISLPNIKRHKGVSISFEETSEDMVLEPRPFIFDGLNIRCFRRETIFSLKNKILNMVKESSSFKNVSRQSVSFMYFKIFNKGKVIASTKSVNIYEDKIDERLEDLCNNFDDVLKKIIDVTYGYESLFVSETYSYVIFYAKSIYFPQPRCVNNWGNNIPNILTFDSFKLFTANKNNVSCIKQCSRFLWQKDFNTLEEMIEYKNGNICIVTPQLHINDVRDIKSFNDIRLYSESPIKTFSVIDNTITYLFYFKEHLGVIFNITKSRHDRRVTKFSPLSKFSDVKNITVCFDIESYFDPEKESNQVNIPFICCASIIYNKVIGNIVDFEGRDCVAQMIEYVVDICGELNISSVELIAHNGGGYDFHYILSSMYNPAAIKNILIRNNSFISFNFAHDGVKFSVKDSYSFLLCSVANASKAFLNEETFKKTDFPHHDLKTADDLYKVYKEWSSVNTEINHVVEKEKLLITSEHIVNFTKNDKSKTLIEWSKDYCRNDVLVLSKVWLEFKNAVEDIFNCELVDQTMTLAGLSYKLFQANMPFDVELRHPNKEDYFNMREALIGGRCISVNGIYKDVLCYDVKSLYPASMAFYDQPYGSFKRVSSRPKDELGIYYVRVTPNRNNKSNFFPIRSHNKITYNNFEESTYIAWYTNVDIDIGLSEGHNIEYIPFDSYGNIGYSWSKKGKIFEKYIKDVLYKLKIKYEKQNNKVKRNVIKKIMNSLWGKFAQKWVNFEYFIKSEDDIDFESEEAYKINDTDFMLIKKIKESTYSSKPIQNGVFTLSWARYHMKSIWDAGAKEGAECIYSDTDSIFVHKEHFKKNAKFMLNGLKVPIIGSEVGQLELECEFDKLLCAGKKQYMGFYTYFQDGKPCIKEKKRFKGIPSNYIIPELYAHLLSGADKEAKIQFLKFRREWGSVKGYIENKTVKAT
B3: w.t.: wild-type Kluyveromyces lactis DNA polymerase TP-DNAP1, SEQ ID NO:1 (protein, listed as Kluyveromyces lactis)
chain: B2 chain with V477L, Y640L, K777I, N814W

Columns and labels:
Assay type in all cases: cell-based, S. cerevisiae
p1-encoded leu2* = assay: p1 leu2* fluctuation tests in AR-Y304 (p1 mutation rate reporter strain, mutual orthogonality)
Excerpt: Strains for testing mutual orthogonality were generated by transforming a panel of CEN6/ARS4 vectors encoding TP-DNAP1 or TP-DNAP2 variants into two base strains, AR-Y304 and GA-Y021. AR-Y304 (Ravikumar et al., 2014, Nature Chemical Biology, 10:175-177) contains recombinant p1 encoding mKate2, URA3 and leu2* without disturbing the native TP-DNAP1 ORF. Similarly, GA-Y021 encodes recombinant p2 that replaces ORF1 with mKate2, URA3 and leu2* without disturbing the native TP-DNAP2 ORF.
To precisely measure p1 and p2 per-base substitution mutation rates, several modifications were made to the small-scale protocol. First, 36 replicates were performed for reconfirmation of candidate TP-DNAP2 mutators, and 48 replicates for genomic and mutual orthogonality experiments. Titers were also determined for each strain after spot plating by pooling the residual volume from 4 replicates and plating dilutions on YPD. The expected number of LEU2 functional mutants (m) was determined by the Ma-Sandri-Sarkar maximum likelihood estimator (as calculated by the FALCOR tool and corrected for partial plating (Foster, 2006, Methods Enzymol, 409:195-213; Sarkar et al., 1992, Genetica, 85:173-179; Hall et al., 2009, Bioinformatics, 25:1564-1565). The mean mKate2 fluorescence was determined from 50,000 event counts on Attune™ NxT Flow Cytometer and converted to p2 copy number by using a calibration curve. To determine per-base substitution rates, the corrected m was normalized to the average cell titer, the p2 copy number, and the target size for functional leu2* reversion (2.33 bp). 95% confidence intervals were similarly scaled.
To test whether the replication mechanisms of p1 and p2 are mutually orthogonal in vivo, p1 and p2 mutation rates were measured in the presence of a panel of TP-DNAP1 and TP-DNAP2 variants with varying mutation rates. Changes in p1 or p2 mutation rate induced by TP-DNAP variants would therefore signal a degree of cross-replication between TP-DNAP1/p1 and TP-DNAP2/p2, if any. A panel of six polymerases was introduced on CEN6/ARS4 vectors into two separate base strains, AR-Y304 (p1 mutation rate reporter strain) and GA-Y021 (p2 mutation rate reporter strain), encoding mKate2, URA3, and leu2* on either p1 or p2, respectively. Included in this panel were TP-DNAP1^WT and two error-prone TP-DNAP1 variants found in previous screens: TP-DNAP1^1777K, L900S and TP-DNAP1^L477V, L640Y, I777K, W814N. Also included were TP-DNAP2^WT and the error-prone TP-DNAP2^S370Q and TP-DNAP2^Y424Q variants found in this work. In AR-Y304 and GA-Y021, both p1 and p2 still encode their native wt TP-DNAP's. Any contribution to replication by a third TP-DNAP encoded in trans is monitored by detecting changes in linear plasmid mutation rate. Importantly, these experiments afford each DNAP an opportunity to replicate its native plasmid and lose its attached TP, becoming “spent” and perhaps more likely to replicate its noncognate linear plasmid through DNAP exchange (Klassen and Meinhardt, 2007, Linear Protein-Primed Replicating Plasmids in Eukaryotic Microbes, in Microbial Linear Plasmids, pp 1 87-226. Springer, Berlin, Heidelberg). The presence of TP-DNAP1^WT or TP-DNAP2^WT in trans had no effect on their noncognate linear plasmids' mutation rate. […] Likewise, p1 mutation rate was unaltered in the presence of mutagenic TP-DNAP2^S370Q and TP-DNAP2^Y424Q, which increased p2 mutation rate by 29- and 16-fold, respectively (FIG. 9). Thus, TP-DNAP1 replicates p1 with at least 870-fold specificity over p2, while TP-DNAP2 targets p2 with at least 29-fold specificity over p1. The level of mutual orthogonality measured here is limited by the error-rates of DNAPs used, especially that of TP-DNAP2 variants.

p1-encoded leu2 (Q180*) = assay: qPCR measurement of p1-encoded leu2 (Q180*) copy number; conditions: qPCR-determined p1 copy number, OR-Y24 strains
Method: A calibration curve was established to correlate p1 copy number, determined via quantitative PCR (qPCR), with fluorescence of p1-encoded mKate2 (Table 1). Five TP-DNAP1 variants representing a wide range of copy numbers were transformed into ORY24 and passaged until w.t. p1 was displaced. The five OR-Y24 strains were grown to saturation, diluted 1:10,000 to mimic p1 fluctuation tests, and grown in triplicate 100 μL cultures and duplicate 40 mL cultures. 100 μL saturated cultures were subject to fluorescence measurement of mKate2 (ex/em=561 nm/620 nm, bandwidth=15 nm) on a flow cytometer (Invitrogen Attune NxT). Whole-cell DNA extracts were prepared from 40 mL cultures and used as templates for qPCR measurement of p1-encoded leu2 (Q180*), as described previously (Ravikumar et al., 2014). p1-encoded LEU2 was PCR amplified with qPCR-Leu2F and qPCR Leu2R; and genomic LEU3 was PCR amplified with qPCR-Leu3F and qPCR-Leu3R using SyBR Green (Fisher Scientific) master mix.

genomic URA3 gene = assay: Fluctuation tests of the genomic URA3 gene in the presence of TP-DNAP1 variants; conditions: for Yeast genomic substitution mutation rate: URA3 locus, strain harbouring p1 and the TP-DNAP1 variant
Method: Fluctuation tests of the genomic URA3 gene were performed to determine genomic per-base substitution rates, as previously described (Ravikumar et al., 2014). Fluctuation data were analyzed by the maximum likelihood method, as described for large-scale p1 fluctuation tests. Phenotypic mutation rates were divided by the target size for loss of function of URA3 via base pair substitution (Lang et al., 2008), to yield per-base substitution rates. 95% confidence intervals were similarly scaled by these factors. All data related to genomic URA3 fluctuation tests are fully described in Table 5.

Row | Molecule | change in p1 mutation rate by TP-DNAP2 (p1-encoded leu2*; AR-Y304, noncognate polymerase in trans) | Average leu2 (Q180*) copy number per cell (p1-encoded leu2 (Q180*); L640Y, I777K, W614N) | genomic mutation rates in the presence of p1 replication (genomic URA3 gene) | Yeast genomic substitution mutation rate (genomic URA3 gene) | fold increase of p1 mutation rate (p1-encoded leu2*; AR-Y304, polymerase in trans) [fold] | Average leu2 (Q180*) copy number per cell (p1-encoded leu2 (Q180*)) | specificity for p1 over p2 (p1-encoded leu2*)
1 | B1 | no effect |  |  |  |  |  | 
2 | B2 |  | 16.9 and 15.6 | remain unchanged | 1.98 × 10^−10 s.p.b. | 870 |  | 
3 | B3 |  |  |  | 8.73 × 10^−11 s.p.b. |  | 68.9 and 88.1 | at least 870 fold
